Experimental data as given in paper PMC6358110, “Role of SpaO in the assembly of the sorting platform of a Salmonella type III secretion system” (PLoS Pathogens, 2019).

Assays:
[1] = biological target: FLAG-tagged SpaO^L67pBpa (Salmonella enterica Typhimurium SL1344) (UniProt P40699); test: cross-linking; site-specific in vivo photo-cross-linking: pBpa in SpaO, live S. Typhimurium in PBS irradiated at 365 nm; whole cell lysates on SDS-PAGE, anti-FLAG western blot, with and without UV
[2] = biological target: T1, SpaO^L, full length product of spaO, N-terminal His-tagged (S. Typhimurium, UniProt P40699 1-303); test: SEC; N-terminal His-tagged SpaO made in E. coli, purified on Ni-NTA, run on Superose 6 10/300 GL; fractions analysed by SDS-PAGE and Coomassie; SpaO^L and SpaO^S made from one plasmid and co-purified; details: both partners purified
T1 construct: SpaO, full length product (SpaO^L) of the spaO gene, S. Typhimurium SPI-1 T3SS sorting platform component; The same plasmid gives both SpaO^L and the internally translated SpaO^S; also called His-tagged SpaO; source: E. coli Lemo21(DE3) harboring plasmid pSB3775, purified (Ni-NTA, Superose 6); not shown: His tag, N-terminal, kept
T1 sequence: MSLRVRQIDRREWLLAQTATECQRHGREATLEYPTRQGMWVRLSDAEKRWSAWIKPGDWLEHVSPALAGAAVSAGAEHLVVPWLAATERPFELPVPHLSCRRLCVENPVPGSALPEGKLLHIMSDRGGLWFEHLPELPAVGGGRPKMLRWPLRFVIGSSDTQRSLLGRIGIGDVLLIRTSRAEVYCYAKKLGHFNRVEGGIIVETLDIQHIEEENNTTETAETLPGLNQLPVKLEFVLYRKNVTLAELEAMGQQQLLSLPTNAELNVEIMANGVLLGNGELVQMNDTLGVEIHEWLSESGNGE

Molecule	stoichiometry N [1]	stoichiometry N [2]
FLAG-tagged SpaO^L67pBpa (from UniProt P40699 1-303) (natural protein)	4	–
SpaO^S, short form of SpaO composed of the C-terminal 101 amino acids (domain or fragment, SpaO^S, internally translated product of spaO starting at the internal GTG codon 203; the C-terminal 101 amino acids of SpaO, S. Typhimurium; Translated from an internal GTG start codon, so the first residue is probably Met rather than Val (surmised); source: E. coli Lemo21(DE3) harboring plasmid pSB3775, co-purified with His-tagged SpaO^L (Ni-NTA, Superose 6)) VETLDIQHIEEENNTTETAETLPGLNQLPVKLEFVLYRKNVTLAELEAMGQQQLLSLPTNAELNVEIMANGVLLGNGELVQMNDTLGVEIHEWLSESGNGE	–	2 SpaO^S per SpaO^L
